Among the data in the RNAGym collection of RNA variant scans (doi:10.7554/elife.80360) are self-cleavage values, retold here.

B1: HDV Ribozyme (parent)
chain: GGCCGGCAUGGUCCCAGCCUCCUCGCUGGCGCCGGCUGGGCAACAUUCCGAGGGGACCGUCCCCUCGGUAAUGGCGAAUGGGACCCA

The series covers variants of B1. As to the kind of experiment: self-cleavage, relative activity (ratio to wild type); higher = more cleavage; co-transcriptional.
Consider GGCCGGCAUGGUCCCAGCAUCCUCGCUGGCGCCGGCUGAGCAACAUUCCGAGGGGACCGUCCCCUCGGUAAUGGCGAAUGGGACCCA, for which the self-cleavage was found to be 0.114.

Regarding GGCCGGCAUGGUCCCAGCAUCCUCGCUGGCGCCGGCUGCGCAACAUUCCGAGGGGACCGUCCCCUCGGUAAUGGCGAAUGGGACCCA, the self-cleavage came out at 0.

With GGCCGGCAUGGUCCCAGCAUCCUCGCUGGCUCCGGCUGGGCAACAUUCCGAGGGGACCGUCCCCUCGGUAAUGGCGAAUGGGACCCA, the self-cleavage was 0.192.

Consider GGCCGGCAUGGUCCCAGCAUCCUCGCUGGCCCCGGCUGGGCAACAUUCCGAGGGGACCGUCCCCUCGGUAAUGGCGAAUGGGACCCA, for which the self-cleavage was found to be 0.141.

Turning to GGCCGGCAUGGUCCCAGCAUCCUCGCUGGCGCCGGCUGGGCAACAUUCCGAGGGGACCGUCCCCUCGGUAAUGGCGAAUGGGAGCCA, the self-cleavage turned out to be 0.196.

As for GGCCGGCAUGGUCCCAGCAUCCUCGCUGGCGCCGGCUGGGCAACAUUCCGAGGGGACCGUCCCCUCGGUAAUGGCGAAUGGGAACCA, the self-cleavage came out at 0.0519.

Regarding GGCCGGCAUGGUCCCAGCAUCCUCGCUGGCGCCGGCUGGGCAACAUUCCGAGGGGACCGUCCCCUCGGUAAUGACGAAUGGGACCCA, the self-cleavage was determined as 0.0755.

In the case of GGCCGGCAUGGUCCCAGCAUCCUCGCUGGCGCCGGCUGGGCAACAUUCCGAGGGGACCGUCCCCUCGGUAAUGGGGAAUGGGACCCA, the self-cleavage was 0.0528.

In the case of GGCCGGCAUGGUCCCAGCAUCCUCGCUGGCGCCGGCUGGGCAACAUUCCGAGGGGACCGUCCCCUCGGUAAUGGUGAAUGGGACCCA, the self-cleavage was found to be 0.058.

With GGCCGGCAUGGUCCCAGCAUCCUCGCUGGCGCCGGCUGGGCAACAUUCCGAGGGGACCGUCCCCUCGGUAAUGGCCAAUGGGACCCA, the self-cleavage amounted to 0.102.

GGCCGGCAUGGUCCCAGCAUCCUCGCUGGCGCCGGCUGGGCAACAUUCCGAGGGGAUCGUCCCCUCGGUAAUGGCGAAUGGGACCCA: the self-cleavage is 0.155.

With GGCCGGCAUGGUCCCAGCAUCCUCGCUGGCGCCGGCUGGGCAACAUUCCGAGGGGACCGUCUCCUCGGUAAUGGCGAAUGGGACCCA, the self-cleavage came to 0.111.

In the case of GGCCGGCAUGGUCCCAGCAUCCUCGCUGGCGCCGGCUGGGCAACAUUCCGAGGGGACCGUCGCCUCGGUAAUGGCGAAUGGGACCCA, the self-cleavage was found to be 0.104.

Consider GGCCGGCAUGGUCCCAGCAUCAUCGCUGGCGCCGGCUGGGCAACAUUCCGAGGGGACCGUCCCCUCGGUAAUGGCGAAUGGGACCCA, for which the self-cleavage came to 0.112.

For GGCCGGCAUGGUCCCAGCAUCCUUGCUGGCGCCGGCUGGGCAACAUUCCGAGGGGACCGUCCCCUCGGUAAUGGCGAAUGGGACCCA, the self-cleavage is 0.0674.

As to GGCCGGCAUGGUCCCAGCAUCCUCGCUGGCGCCGGCUGGGCAACAUUCCGAGGGGACCGUCCCCUCGGUAAUGGCGAAUGGGACACA, the self-cleavage was determined as 0.0963.

Regarding GGCCGGCAUGGUCCCAGCAUCCUCGCUGGCGCCGGCUGGGCAACAUUCCGAGGGGACCGUCCCCUCGGUAAUGGCGAAUGGGACGCA, the self-cleavage was 0.149.

Take GGCCGGCAUGGUCCCAGCAUCCUCGCUGGAGCCGGCUGGGCAACAUUCCGAGGGGACCGUCCCCUCGGUAAUGGCGAAUGGGACCCA: the self-cleavage was 0.0357.

Regarding GGCCGGCAUGGUCCCAGCAUCCUCGCUGGCGCCGGCUGGGCAACAUUCCGAGGGGACCGUCCCCUCGGUAAUGGCGACUGGGACCCA, the self-cleavage came out at 0.0248.

As to GGCCGGCAUGGUCCCAGCAUCCUCUCUGGCGCCGGCUGGGCAACAUUCCGAGGGGACCGUCCCCUCGGUAAUGGCGAAUGGGACCCA, the self-cleavage was found to be 0.0791.

For the variant GGCCGGCAUGGUCCCAGCAUCCUCGCUGGCGCCGGCUGGGCAACAUUCCGAGGGGACCGUCCCCUCGGUAAUGGCGAAUGGGACCCU, the self-cleavage turned out to be 0.223.

As for GGCCGGCAUGGUCCCAGCAUCCUCGCUGGCGCCUGCUGGGCAACAUUCCGAGGGGACCGUCCCCUCGGUAAUGGCGAAUGGGACCCA, the self-cleavage amounted to 0.

Regarding GGCCGGCAUGGUCCCAGCAUCCUCGCUGGCGCCGGCUGGGCAACAUUCCGAGGGGACCGUCCCCUCGAUAAUGGCGAAUGGGACCCA, the self-cleavage stood at 0.0631.

On to GGCCGGCAUGGUCCCAGCAUCCUCGCUUGCGCCGGCUGGGCAACAUUCCGAGGGGACCGUCCCCUCGGUAAUGGCGAAUGGGACCCA, for which the self-cleavage came to 0.79.

In the case of GGCCGGCAUGGUCCCAGCAUUCUCGCUGGCGCCGGCUGGGCAACAUUCCGAGGGGACCGUCCCCUCGGUAAUGGCGAAUGGGACCCA, the self-cleavage is 0.134.

GGCCGGCAUGGUCCCAGCAUCCUCGCUGGCGCCGGCUGGGCAACAUUCCGAGGGGACCGUCCCCUCGGUAAUUGCGAAUGGGACCCA: the self-cleavage came to 0.0631.

Consider GGCCGGCAUGGUCCCAGCAUCCUCGCUGGCGCCGGCUGGGCAACAUUCCGAGGGGACCGUCCCCUCGGUAAUAGCGAAUGGGACCCA, for which the self-cleavage was determined as 0.0519.

Consider GGCCGGCAUGGUCCCAGCAUCCUCGCUGGCGCCGGCUAGGCAACAUUCCGAGGGGACCGUCCCCUCGGUAAUGGCGAAUGGGACCCA, for which the self-cleavage is 0.125.

For GGCCGGCAUGGUCCCAGCAUCCUCGCUGGCGCCGGGUGGGCAACAUUCCGAGGGGACCGUCCCCUCGGUAAUGGCGAAUGGGACCCA, the self-cleavage was determined as 0.0923.

For the variant GGCCGGCAUGGUCCCAGCAUCCUCGCUGGCGCCGGUUGGGCAACAUUCCGAGGGGACCGUCCCCUCGGUAAUGGCGAAUGGGACCCA, the self-cleavage was found to be 0.0468.

Consider GGCCGGCAUGGUCCCAGCAUCCUCGCUGGCGCCGGCUGGGCAACAUUCCGAGGGGACCAUCCCCUCGGUAAUGGCGAAUGGGACCCA, for which the self-cleavage was found to be 0.125.

Regarding GGCCGGCAUGGUCCCAGCAUCCUCGCUGGCGCCGGCUGGGCAACAUUCCGACGGGACCGUCCCCUCGGUAAUGGCGAAUGGGACCCA, the self-cleavage amounted to 0.125.
